The text below walks through data of patent US20140105903A1 (Harvard, published 2014).

Assay [1] has as its target ANG binding sites on ANG receptor expressing LNCaP cells. Nature of the assay: radio receptor assay, 125I-ANG on LNCaP cells at 4 C, Scatchard analysis.
For assay [2] the target is unchanged. Nature of the assay: radio receptor assay, 125I-ANG on LNCaP cells at 4 C, Scatchard analysis; second site.
Another assay deals with T1, Angiogenin (human ANG) (human, UniProt P03950 25-147, iodine-125 label in the radio receptor assay; coupled to Sepharose in the affinity chromatography).
T1 construct: also called free ANG
T1 sequence (P03950 25-147 limits assumed): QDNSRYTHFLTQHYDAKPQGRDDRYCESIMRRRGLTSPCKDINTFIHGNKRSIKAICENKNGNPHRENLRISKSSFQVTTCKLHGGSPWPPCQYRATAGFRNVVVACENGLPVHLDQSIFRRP
Nature of the assay: method not named at this place; Example 4 names ELISA and equilibrium dialysis.

A word on the Kd: it is the equilibrium constant for the complex coming apart. A low value points to a tighter complex. In the case of “Angiogenin (human ANG) (from UniProt P03950 25-147) (ligand)”, the values for the Kd in assay [1] and in assay [2] were 0.45 nM and 170 nM, respectively.

B1: Plexin B2 peptide GTSSEYDSILVEINKRVK (SEQ ID NO: 1) (peptide)
peptide: GTSSEYDSILVEINKRVK
notes: Chemically synthesized peptide from the region of Plexin B2 between residues 316 and 449
For B1, binding with Angiogenin (human ANG) was put at a Kd of 200 nM. That is a sub-micromolar value.
